Assay in all cases: pulldown
Data set [1] concerns Hemagglutinin H5N1 A/Hong Kong/483/97 (H-12) (Influenza A virus H5N1 (A/Hong King/483/97)).
Data set [2] relates to Hemagglutinins of 14 non-H5 subtypes (H1-H4, H6-H13, H15, H16; Table 1 strains) (Influenza A virus).
In data set [3] the test system is Hemagglutinin H5N1 A/Hubei/2010 (HB-16) (Influenza A virus H5N1 (A/Hubei/2010)).
Data set [4] has as its system Hemagglutinin H5N1 A/duck/Hunan/795/2002 (HN-8) (Influenza A virus H5N1 (A/duck/Hunan/795/2002)).
The test system of data set [5] is Hemagglutinin H5N2 A/American green-winged teal/California/HKWF609/2007 (A-17) (Influenza A virus H5N2 (A/American green-winged teal/California/HKWF609/2007)).
Data set [6] deals with Hemagglutinin H5N1 A/bar-headed goose/Qinghai/14/2008 (Hg-2) (Influenza A virus H5N1 (A/bar-headed goose/Qinghai/14/2008)).
The subject of data set [7] is Hemagglutinin H5N8 A/duck/NY191255-59/2002 (D-14) (Influenza A virus H5N8 (A/duck/NY191255-59/2002)).
Data set [8] concerns Hemagglutinin H5N1 A/Cambodia/R0405050/2007 (C-8) (Influenza A virus H5N1 (A/Cambodia/R0405050/2007)).
Data set [9] relates to Hemagglutinin H5N3 A/duck/Hokkaido/167/2007 (HK-12) (Influenza A virus H5N3 (A/duck/Hokkaido/167/2007)).
Data set [10] has as its system Hemagglutinin H5N1 A/Indonesia/5/2005 (IN-3) (Influenza A virus H5N1 (A/Indonesia/5/2005)).
Data set [11] has as its system Hemagglutinin H5N1 A/Japanese white-eye/Hong Kong/1038/2006 (JW-1) (Influenza A virus H5N1 (A/Japanese white-eye/Hong Kong/1038/2006)).
Data set [12] relates to Hemagglutinin H5N1 A/Vietnam/1994/2004 (V-16) (Influenza A virus H5N1 (A/Vietnam/1994/2004)).
The subject of data set [13] is Hemagglutinin H5N1 A/Egypt/2321-NAMRU3/2007 (EG-2) (Influenza A virus H5N1 (A/Egypt/2321-NAMRU3/2007)).
The subject of data set [14] is Hemagglutinin H5N1 A/goose/Guiyang/337/2006 (G-8) (Influenza A virus H5N1 (A/goose/Guiyang/337/2006)).

We go through 13 sequences from patent publication US20180050058.

pKd: −log10 of the molar value. Where only a bound is given, the exact number is not on record here.

Consider AGTGGGTTCTTGGTGCATCCCAGGAGTACC [A1], for which the negative-log Kd (pKd) in data set [1] was 7.59. Besides, the binding signal in data set [2] is less than 20%.
In turn, ATTGCAAGGAGAGGCTACGGCTATGACAGA [A8] yielded a binding signal in data set [2] of less than 20%. Besides, the negative logarithm of the Kd (pKd) in data set [3] was 8.03.
As to CTTCTTCCACCCATGCCGGCTGGAGAATCC [A5], the pKd in data set [4] is 7.91. This sequence also displayed a binding signal in [2] of less than 20%.
Take GCGAGGTTGAGCGTGGGCTACTTGGTTCAT [A11]: the negative-log Kd (pKd) in [5] was 8.46. The sequence also had a binding signal in data set [2] of less than 20%.
GGGGTCAACTTTTCCTTTGTCGGTTTT [A2] gave a negative logarithm of the Kd (pKd) in [6] of 7.87. Besides, the binding signal in data set [2] is less than 20%.
In turn, TACTTATGTGGGCCGGTGCGTTTGCATTTT [A13] showed a pKd in data set [7] of 9.15. In addition, the binding signal in data set [2] is less than 20%.
In the case of TCACGCTTTTGGTGCATGCAGAGTTTTGTG [A4], in data set [8], the negative logarithm of the Kd (pKd) was 7.36. The same sequence displayed a binding signal in [2] of less than 20%.
The sequence TGCACGCAGGGGCCGCTTGGGTGGAGAGGC [A12] had a pKd in data set [9] of 8.46. Moreover, in [2], the binding signal was less than 20%.
As for TGGATTCACGCGGTCTCCGCCCTTGGGTGG [A6], the pKd in [10] was 7.85. Also, in [2], the binding signal is less than 20%.
For the sequence TGGATTGCACGCAGGGGCCGCTTGGCTGTC [A9], the pKd in data set [11] is 8.11. The same sequence showed a binding signal in [2] of less than 20%.
TGGCAGTGGGTTGAGGGGAAGTCTTATTCG [A3] showed a pKd in data set [12] of 8.12. This sequence gave a binding signal in data set [2] of less than 20%.
On to TGGGTTTGGAAATTGGGACACAGTGGGGCG [A7], for which the pKd in data set [13] is 8.71. The binding signal in [2] was less than 20%.
Sequence TGTCGGGGGAACAATCTGTGTTCGCTTGTC [A10] had a negative logarithm of the Kd (pKd) in [14] of 8.24. In data set [2], this sequence showed a binding signal of less than 20%.
